According to article PMC7058014:

Target: T1, GST-ATML1(30-134) (Arabidopsis thaliana) (UniProt Q8RWU4)
T1 sequence: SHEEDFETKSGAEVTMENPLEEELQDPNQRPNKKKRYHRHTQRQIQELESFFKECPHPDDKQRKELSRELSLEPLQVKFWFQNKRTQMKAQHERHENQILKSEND
Assay: EMSA
Details: 15 mM Tris pH 7.5, 50 mM NaCl, 0.1 mM DTT, 5% glycerol, 0.1 mM MgCl2, 50 ng/ul carrier DNA, room temperature 30 min; 6% gel in 0.5x TBE at 4 C

Sequence | binding
ATGTGAATGAAGCCAAGAATCAGTTAATACTAAAGCTCAAGTGTGCAATATACATCACAATACCTTTGTCCTTGTTTCAGGTCTACTTTTACATCATAGAACTTGCTCCTATAGATAATACAATGCATGGTATTGACGTAAGAACTCTTAGCTTTTCATATTAGTAGCTTATAATGTTCCTTAAATGCGACATTGATATTAAGCTACTACTCAATAACTCAATGGTAACGAATCATAAGTCTGAACTATTCGAAAACAGTAATCCTGAAAAGAAA (double strand) [MIR171A-F1] | binds
CCTGATAATTTGATATCATCGGTTGTAAAAACGAATATGTAATGTTACATTACTAATGTATAAAGTATAAACAAATATTATTATCTTTTGAAAAAAGTTTTTCATAGAAACAATTCAAATTTAATAAACCAACCTCCTTTTTGGTATGGGGTTGTTGGTCTAATTTAATGCTTGTCTCTTGCTTGCCTCTCTTCTTCAACCATCTTCGTATTTATATCTTCTTCTTCACTATGCATACTCATAAACTTTGCTACTGGCCGCAT (double strand) [MIR171B-F4] | binds
ATGTTGATTACCCATATACTTTGCTAGCGGCCGAAATGATCACTTTCATGATTTTTTTTTGCATAGGTTCATAAAACATATATTTACTTTTTTTTAAGGAAATATTAAATAAATGATAGGAACTTAACAAGAGAAGAAATAAATAGGGAGGGAGAATATTTGGAAAGTTGAGCCATATTAATTTCGAAATTCAAATGTATATTGGGAGTGGCACAACCCCACCAACATGCCTTGCTCTCTCTTACAAACCTCATAAATACTAAATTGAAAGCTCGTGGGA (double strand) [MIR171B-F3] | binds
GGGTTCATAACTTGCTTGAGGTTTTGTAAAAAGCAGAGAAAGAGAGAGAGAGGGGCCTAGAAAGAAAGAAAGAAAAGCAGTAAGAGACTATTAAATGTTGCAGGCAGGTCCAGCCAGTGTCCCCTCTCTTCTGCGAGATTCCCTCAAAATTTATTACAAAGCATCTTCATCGATGTTCTTTTAATTCTTCCTCAAAATCTTTTCTCTTTTTTTGGTTATATATATTTGAATTTTGATTTATGAACCTCCTCAAGAAGGAAA (double strand) [MIR171A-F2] | binds
CCTCCTCAAGAAGGAAAGACAGAGGAGGAGACAAAGAAGTATAGGTTCACATTGCATAGCCAGTTTAGTTTTGAAGGATGGATATATGAAAAAAATATGAAGAGAGAGAAGAGAGAAGAAGAGGAGGATTAAAGAGGGTGAGGCCAGCTTTTGTGCTTTGGTAGTAGATGAGGTTTAAATGCTCCATACCTTCCATTTCCTTCTCTCTTACCCTAATTTAATTCTTCCTCTCCTTTATAACTCCCCACAGACATTCTCACT (double strand) [MIR171A-F3] | binds
